# Measured values published in paper PMC2949298 (Nature structural & molecular biology, 2010).
# Tests used:
# Assay in all cases: SPR
# [1] = molecular target: UC1_(Full-length) (V1V2-containing UC1 gp120, HIV-2) with sCD4 (HIV-2 isolate UC1 gp120; human CD4, UniProt Q76638;PDB, strain)
# [2] = molecular target: soluble CD4 (domains 1 and 2 from human CD4) (human)
# [3] = molecular target: CAP210–sCD4 complex (core CAP210 gp120 with sCD4) (HIV-1 clade C CAP210.2.00.E8 gp120; …, strain)
binder,measurement,setting,value
"21c Fab (Fab, V domains shown) VH: QVQVVQSGAEVRKPGASVKVSCKVSGFTLTGLSIHWVRQAPGKGLEWMGGFGPEENEIIYAQKFQGRVSMTEDTSTNTAYMELSSLRSEDTAVYYCATGGNYYNLWTGYYPLAYWGQGTLVTVSS VL: QSVLTQPPSVSAAPGQKVTISCSGSSSNIGKNYVSWYQQLPGAAPKLLIFDDTQRPSGIPDRFSGSKSGTSATLAITGLQTGDEADYYCGTWDSSLSTGQLFGGGTKLTVL",binding result,[1],binds
same,Kd,[2],> 100000 nM
same,Kd,[3],1600 nM
